In publication PMC2730168 (Molecular cell, 2009):
Each block holds one binder with its values, some of them ahead of it.

Tests used:
[1] = target: T1, Core RAG1 (384–1008) fused to MBP (MR1) (mouse), P15919; test: SEC-MALS; details: remark: other sources report otherwise
T1 chain: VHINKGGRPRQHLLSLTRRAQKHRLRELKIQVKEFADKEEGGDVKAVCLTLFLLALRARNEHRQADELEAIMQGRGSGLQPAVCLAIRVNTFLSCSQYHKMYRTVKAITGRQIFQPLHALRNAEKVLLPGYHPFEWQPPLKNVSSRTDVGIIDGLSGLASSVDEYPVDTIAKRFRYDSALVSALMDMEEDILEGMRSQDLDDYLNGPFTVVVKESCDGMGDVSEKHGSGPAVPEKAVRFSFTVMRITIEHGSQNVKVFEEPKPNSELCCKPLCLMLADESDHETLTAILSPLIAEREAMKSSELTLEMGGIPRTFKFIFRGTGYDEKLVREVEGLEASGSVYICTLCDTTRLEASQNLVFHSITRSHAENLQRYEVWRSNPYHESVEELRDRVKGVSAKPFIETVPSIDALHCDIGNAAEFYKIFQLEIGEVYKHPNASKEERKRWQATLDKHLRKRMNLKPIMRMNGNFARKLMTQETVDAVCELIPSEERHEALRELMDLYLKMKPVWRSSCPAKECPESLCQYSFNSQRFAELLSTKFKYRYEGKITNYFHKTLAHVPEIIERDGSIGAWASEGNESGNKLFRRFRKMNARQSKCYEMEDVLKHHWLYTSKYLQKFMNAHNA

[2] = target: T2, Core RAG1 (384–1008) fused to MBP (MR1) (mouse, UniProt P15919 384-1008); test: SEC
T2 sequence (looked up): T1 chain

stoichiometry N [1]: 2
B1: Core RAG1 (384–1008) fused to MBP (MR1), P15919 384-1008 (domain or fragment)
chain: T1 chain

stoichiometry N [2]: ~0.5 per RAG1
B2: HMGB1 (1–163) (domain or fragment, UniProt P09429 1-163, looked up)
chain: MGKGDPKKPRGKMSSYAFFVQTCREEHKKKHPDASVNFSEFSKKCSERWKTMSAKEKGKFEDMAKADKARYEREMKTYIPPKGETKKKFKDPNAPKRPPSAFFLFCSEYRPKIKGEHPGLSIGDVAKKLGEMWNNTAADDKQPYEKKAAKLKEKYEKDIAAYR

stoichiometry N [2]: 1 RAG1:RAG2
B3: Core RAG2 fused to MBP with a PreScission protease site (LR2) (domain or fragment, mouse, UniProt P21784 1-387, looked up)
chain: MSLQMVTVGHNIALIQPGFSLMNFDGQVFFFGQKGWPKRSCPTGVFHFDIKQNHLKLKPAIFSKDSCYLPPLRYPATCSYKGSIDSDKHQYIIHGGKTPNNELSDKIYIMSVACKNNKKVTFRCTEKDLVGDVPEPRYGHSIDVVYSRGKSMGVLFGGRSYMPSTQRTTEKWNSVADCLPHVFLIDFEFGCATSYILPELQDGLSFHVSIARNDTVYILGGHSLASNIRPANLYRIRVDLPLGTPAVNCTVLPGGISVSSAILTQTNNDEFVIVGGYQLENQKRMVCSLVSLGDNTIEISEMETPDWTSDIKHSKIWFGSNMGNGTIFLGIPGDNKQAMSEAFYFYTLRCSEEDLSEDQKIVSNSQTSTEDPGDSTPFEDSEEFCFS
